{"source": "patent US20230322857A1", "about": "“RECOMBINANTLY ENGINEERED POLYPEPTIDES CAPABLE OF RECYCLING NONCANONICAL COFACTORS” (The Regents of the University of California, priority 2022, published 2023)", "molecules": {"B1": {"name": "LY-13: phosphite dehydrogenase variant with A155N, E175A, A176F (SEQ ID NO: 6) (protein)", "chain": "MLPKLVITHRVHEEILQLLAPHCELITNQTDSTLTREEILRRCRDAQAMMAFMPDRVDADFLQACPELRVIGCALKGFDNFDVDACTARGVWLTFVPDLLTVPTAELAIGLAVGLGRHLRAADAFVRSGKFRGWQPRFYGTGLDNATVGFLGMGNIGLAMADRLQGWGATLQYHAFKALDTQTEQRLGLRQVACSELFASSDFILLALPLNADTLHLVNAELLALVRPGALLVNPCRGSVVDEAAVLAALERGQLGGYAADVFEMEDWARADRPQQIDPALLAHPNTLFTPHIGSAVRAVRLEIERCAAQNILQALAGERPINAVNRLPKANPAAD"}}, "key": {"[1]": {"system": "E. coli SHuffle strain", "experiment": "Recapitulation of growth restoration with TS-PTDH variants in SHuffle strain", "type": "cell-based, Escherichia coli", "settings": "spotted onto agar selection plates", "protocol": "Selection of TS-PTDH Library. A total of 50 μL pre-made SHuffle/pLZ311 or SHuffle/pLZ312 electro-competent cells were transformed with 2 μL TS-PTDH A155N-E175-A176-L208 NNK library DNA (pLZ316) via electroporation as described above. After rescue in SOC media for 1 h, cultures were combined in 10 mL 2×YT with 10 g/L glucose, 0.5% arabinose, kanamycin and ampicillin. 0.2, or 1 μL of culture was immediately taken from the culture and plated on an 2×YT agar plates with kanamycin and ampicillin. The plate was incubated at 37° C. overnight, and the number of colonies formed was counted to estimate the library size. The liquid cultures were incubated at 37° C. with shaking for 10 h. Cells (1 mL) were washed 3 times and re-suspended in M9 Buffer. Targeted serial dilutions of cells were prepared in M9 buffer and 5 μL aliquots were dispensed in series on an agar plate of M9 selection media containing 0.5 mM diamide, 5 or 1 g/L yeast extract, 10 g/L glucose, 0.5% arabinose, 0.5 mM IPTG, 10 g/L sodium phosphite, kanamycin, ampicillin, and 5 mM NMN^+. Selection plates were incubated at 37° C., and photographs were taken to document growth progress. The independent transformants sampled was calculated as 2.4×10^6 and 2.5×10^6 colonies when plated on 5 and 1 g/L yeast extract, respectively. TS-PTDH and the template of the library, TS-PTDH A155N, were cultured in the same conditions as controls. The colonies were numbered by the order of appearance. The selected cells were re-streaked on fresh agar plate with identical media and incubated until single colonies formed on the plate. Variants that cannot forma single colony may be false positives. After extracting the plasmids from each re-streaked colony, the chosen TS-PTDH variants were amplified and moved into the pQElac vector containing a N-terminal 6×His tag for protein purification and characterization. […] 2 μL of a serial dilution of cells were deposited onto a growth selection plate and grown at 37° C."}, "[2]": {"experiment": "Steady-state kinetics of TS-PTDH variants with NADP^+", "type": "biochemical", "settings": "100 mM MOPS, pH 7.25, 10 mM sodium phosphite, varied cofactor concentrations; n = 3", "protocol": "(§1) Purification and Characterization of TS-PTDH Variants. The E. coli BL21(DE3) strains harboring pQElac plasmids encoding the TS-PTDH or TS-PTDH variants were grown in 2×YT media with kanamycin and ampicillin at 37° C. The IPTG-inducible expression, Ni-affinity purification, and protein concentration determination was conducted as described above.\n(§2) The steady-state kinetic parameters toward the coenzymes were measured by spiking purified protein into a 100 μL reaction mixture containing 100 mM MOPS, pH 7.25, 10 mM sodium Pt, and varied cofactor concentrations from 0.02 mM to 5 mM at 25° C. The kinetic parameters were measured by monitoring the […] of reduced coenzyme at 340 nm. Data were fitted to the Michaelis-Menten equation to generate estimates of KM and kcat values."}, "[3]": {"experiment": "Steady-state kinetics of TS-PTDH variants with NMN^+", "type": "biochemical", "protocol": "as §1, §2"}, "[4]": {"experiment": "Comparison of PTDH and GDH Triple redox cofactor cycling systems", "type": "biochemical", "protocol": "Comparison of PTDH and GDH Triple Redox Cofactor Cycling Systems. In cycling reactions focused on higher conversion and productivity, see FIG. 10C, the concentration of cofactor cycling protein (TS-PTDH or GDH Triple) was increased relative to the TTN determination experiments. Reactions were performed at 30° C. without shaking in 1 mL volumes in 2 mL glass vials secured with a PTFE-lined screw cap. Sampling and GC-FID analysis were performed as described in the TTN method section.\nReactions utilizing TS-PTDH LY-13 contained 100 mM MOPS at pH 7.5, 100 mM sodium phosphite, 33 mM KIP, and 18.8 μM XenA. Reactions utilizing GDH Triple contained 200 mM potassium phosphate at pH 7.5, 300 mM D-glucose, 1 M NaCl, 33 mM KIP, and 18.8 μM XenA. The NMN^+ concentration in each reaction was varied at 0, 0.05, 0.1, 0.5, or 5 mM. The reactions were initiated by spiking TS-PTDH LY-13 or GDH Triple to a final concentration of 10 μM."}, "[5]": {"experiment": "Steady-state kinetics of TS-PTDH variants with NAD^+", "type": "biochemical", "settings": "100 mM MOPS, pH 7.25, 10 mM sodium phosphite, varied cofactor concentrations; n = 3", "protocol": "as §1, §2"}, "[6]": {"settings": "100 mM MOPS, pH 7.25, 10 mM sodium phosphite, varied cofactor concentrations, n = 3"}}, "note": "Entries after “also recorded” stand apart in the source; their conditions may differ.", "data": [{"molecule": "B1", "values": [{"measurement": "growth restoration, co-expression with NMNH-specific Gor Ortho", "setting": "[1]", "result": "markedly improved growth restoration"}, {"measurement": "growth restoration, co-expression with NMNH-specific Gor Ortho", "setting": "[1]; listed as TS-PTDH LY-13", "result": "improved growth compared to TS-PTDH A155N"}, {"measurement": "Km", "setting": "[2]", "result": "50 ± 10", "unit": "µM"}, {"measurement": "NADP^+ kcat", "setting": "[2]", "result": "0.96 ± 0.02", "unit": "s⁻¹"}, {"measurement": "Km", "setting": "[3]; [6]", "result": 620, "unit": "µM"}, {"measurement": "NMN^+ kcat", "setting": "[3]; [6]", "result": "0.27 ± 0.01", "unit": "s⁻¹"}, {"measurement": "increase in catalytic efficiency for NMN^+ compared to TS-PTDH (wild type enzyme)", "setting": "[3]; vs TS-PTDH", "result": "~110", "unit": "fold"}, {"measurement": "increased catalytic efficiency (kcat/Km) for NMN^+ compared to TS-PTDH A155N", "setting": "[3]; vs parent enzyme TS-PTDH A155N", "result": "~44", "unit": "fold"}, {"measurement": "time to complete conversion of the 33 mM KIP pool", "setting": "[4]; 5 mM NMN^+ supplied, 10 μM cycling enzyme, 18.8 μM XenA", "result": 12, "unit": "h"}, {"measurement": "biotransformation performance compared to GDH Triple at low NMN^+", "setting": "[4]; NMN^+ supplementation 1 mM and lower", "result": "higher biotransformation rates and final titers; also recorded: more efficient utilization of the NMN^+ pool; also recorded: outperform GDH Triple"}, {"measurement": "Km", "setting": "[5]", "result": "180 ± 30", "unit": "µM"}, {"measurement": "NAD^+ kcat", "setting": "[5]", "result": "2.06 ± 0.11", "unit": "s⁻¹"}]}]}
